From PMC9199185, “The Importance of the C-Terminal Cys Pair of Phosphoribulokinase in Phototrophs in Thioredoxin-Dependent Regulation” (Plant and Cell Physiology, 2022)

Legend:
[1] = substrate: Nc1ncnc2c1ncn2[C@@H]1O[C@H](COP(=O)(O)OP(=O)(O)OP(=O)(O)O)[C@@H](O)[C@H]1O; experiment: purified protein; format: biochemical, Nostoc sp. PCC 7120 = FACHB-418; settings: reduced form (pretreated with 50 mM DTTred), ATP varied 0-2 mM, 2 mM ribose 5-phosphate plus ribose 5-phosphate isomerase, 10 mM MgCl2, 100 mM KCl, pH 7.5, 30 °C
[2] = substrate: Nc1ncnc2c1ncn2[C@@H]1O[C@H](COP(=O)(O)OP(=O)(O)OP(=O)(O)O)[C@@H](O)[C@H]1O; experiment: purified protein; format: biochemical, Arabidopsis thaliana; settings: reduced form (pretreated with 50 mM DTTred), ATP varied 0-2 mM, 2 mM ribose 5-phosphate plus ribose 5-phosphate isomerase, 10 mM MgCl2, 100 mM KCl, pH 7.5, 25 °C

B1: A.7120_PRK (Nostoc sp. PCC 7120 = FACHB-418) (protein)
chain: MTTKPERVVLIGVAGDSGCGKSTFLRRLIDLFGEEFMTVICLDDYHSLDRKQRKETGITALDPRANNFDLMYEQIKALKEGQTINKPIYNHETGLIDPPEIVKPNHIVVVEGLHPLYDERVRSLLDFSVYFDISDEVKIAWKIQRDMAERGHRYEDVLAAINSRKPDFQKYIEPQREFADVVLQVLPTNLIKDDTERKVLRVRMLQREGKEGFEPAYLFDEGSTINWTPCGRKLTCSYPGMQLYYGSDVYYGRYVSVLEVDGQFDNLEEVIYIETHLSNTSTKYQGELTQLLLQHREYPGSNNGTGFFQVLTGLKMRAAYERLTTKEAKLAVQV
notes: recombinant in E. coli BL21(DE3), pET-21a; no tag stated; Cys pairs Cys19/Cys41 and Cys230/Cys236
B1 showed a Km [1] of 109 ± 4.5 µM and a Vmax [1] of 214 µmol/min/mg.

B2: AtPRK (Arabidopsis thaliana) (protein)
chain: AQETIVIGLAADSGCGKSTFMRRLTSVFGGAAKPPKGGNPDSNTLISDTTTVICLDDYHSLDRYGRKEQKVTALDPRANDFDLMYEQVKALKNGIAVEKPIYNHVTGLLDPPELIQPPKILVIEGLHPMFDERVRDLLDFSIYLDISNEVKFAWKIQRDMAERGHSLESIKASIEARKPDFDAFIDPQKQYADAVIEVLPTTLIPDDNEGKVLRVRLIMKEGVKYFSPVYLFDEGSTISWIPCGRKLTCSYPGIKFNYEPDSYFDHEVSVLEMDGQFDRLDELIYVESHLSNLSTKFYGEVTQQMLKHADFPGSNNGTGLFQTIVGLKIRDLYEQLIANKATARAEAKA
notes: recombinant in E. coli BL21(DE3), pET-21a; no tag stated; dimer, calculated 79,000
B2 was tested, and the Km [2] was 46.5 ± 6.5 µM and the Vmax [2] was 289 µmol/min/mg.
